Laboratory results: patent US12329801B2, “Regenerative polypeptides and uses thereof” (JUVENA THERAPEUTICS, INC., priority 2021, dated 2025)

Key:
[1] = Murine pharmacokinetics, intravenous, ELISA, non-compartment analysis; type: in vivo, mice; conditions: mice 10-12 weeks old, dose 10 mg/kg (HSA-IGF2R61A), 600 ug/kg (IGF2)
Procedure: Murine pharmacokinetics (PK) represents the absorption, distribution, metabolism, and elimination of drugs from the body. The pharmacokinetic profile of the therapeutic polypeptides were determined in mice (10-12 weeks old). Mice were fed ad libitum and housed under controlled conditions of lighting (12-hour light/12-hour dark) and temperature (22-24° C.). Mice were allowed to acclimate for 3 days prior to the initiation of the experiment. Intravenous (IV) injection in 10-12 weeks old mice. Engineered mitogenic polypeptides concentrations in the samples were measured by ELISA. Various pharmacokinetics will be calculated as well as the absorption/elimination dynamics following different routes of administration.

DM1 human myoblast cells = assay: Proliferation (EdU) and fusion (% eMyHC area) in DM1 human myoblast; type: cell-based; conditions: 72 h for proliferation, fold change vs vehicle
Procedure: FIG. 7A Bar graph of % EdU+ human myoblast (person) and FIG. 7B % area MyHC in response to IGF2. Myoblast were cultured 72 h for proliferation and 96 h for fusion in the presence of indicated factor. Mean∓S.D. Mean∓SD. Significant p-values (EdU: Vehicle˜IGF2: 6.8E-3, % eMyHC Area: Vehicle˜IGF2: 1.9E-4) (*p<0.05 by Students Two-Tailed T-test, n=3-6).
IGF2 was tested individually for its ability to promote proliferation and/or fusion of human muscle progenitor cells from an individual with myotonic dystrophy type 1 (hMD)—a muscular dystrophy caused by mutations in the DMPK1 gene. […] After 72 or 96 hours, cells were pulsed for 2-5 hours with EdU (30 uM), ethanol fixed, stained with Hoescht 3342, immunostained for proliferation—as measured by the percent of cells staining positive for EdU (% EdU)-, and immunostained for differentiation—as measured by the increase in cellular area staining positive for embryonic myosin heavy chain (% eMyHC) relative to the negative controls, which received media and vehicle only. Wells were imaged on a Keyence BZ-100 at 4×, the images quantified in Cell Profiler, and the statistics were computed in R. Additionally, RNA was extracted from myoblast and select transcript abundances quantified by qPCR. […]

IGF2: Human IGF2 amino acid sequence, SEQ ID NO: 29
Half-life [1]: 2.85 h
EdU FC (DM1 human myoblast cells): 2.18
